Measurements published in publication PMC6618058.

Key:
[1] = biological target: HLA-A*02:01 with the MART-1(27-35) nonapeptide …, not tagged
[2] = biological target: Biotinylated HLA-A*02:01 with the MART-1(26-35) decapeptide …

**Q.** How did the MIP‐1β secretion (ELISA) by CD8+ T cells transduced with the MEL5 TCR in response to titrated … presented by T2 cells; sensitivity against that of DMF4 TCR-transduced T cells [1] turn out when MEL5 TCR was run?
**A.** The MIP‐1β secretion (ELISA) by CD8+ T cells transduced with the MEL5 TCR in response to titrated … presented by T2 cells; sensitivity against that of DMF4 TCR-transduced T cells was 100 fold.

**Q.** What about the dH [2] of the same substance?
**A.** The dH was -14 kcal/mol.
